Reference: publication PMC6519983

Target: microtubules (MTs) formed in Xenopus egg extracts (Xenopus laevis (endogenous in egg extract))
Assay: TIRF microscopy of GFP-TPX2 on microtubules; endogenous TPX2 immunodepleted and replaced with 20-30 nM (25 nM) GFP-TPX2 in Xenopus egg extract; 10 µM RanQ69L, 0.5 mM vanadate; silane-passivated coverslips; rise of TPX2 intensity at single pixels of individual de novo MTs before the first branch, normalised by the fluorescence of a single GFP-TPX2 molecule

binding rate (molecules μm^−1 s^−1): 0.4
Substance: Full-length TPX2 with N-terminal Strep II-6xHis-GFP-TEV site tags (natural protein)
